Reference: PMC6239862

Biological target: Q-PAS1 fragment of PpsR2 (Q-linker and PAS1 domain) fused with mRuby2 (Rhodopseudomonas palustris)
Test: cross-linking

Q: “Q-PAS1 fragment of PpsR2 (Q-linker and PAS1 domain) fused with mRuby2 (domain or fragment)” was tested. Which stoichiometry N did it give?
A: The stoichiometry N was 2.
